Results: the nanobody polyreactivity screen of Harvey et al. (2022)

Assay: yeast display, Sf9 membrane polyspecificity reagent, FACS + sequencing; frameworks hold sequencing errors
In short: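 In a synthetic yeast display library (Saccharomyces cerevisiae BJ5465), nanobody expression was induced with galactose for 36–48 hours. FACS gates were set low and high (top ~1%) using anti-HA fluorescence for expression and streptavidin fluorescence for binding of the Sf9 membrane reagent. Each polyreactivity label is drawn from the gate of origin.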

Sequence	polyreactivity (PSR sort gate)
QVQLVESGGGLVQAGGSLRLSCAASGRIFVVYVMGWYRQATGKEREFVAAITWGGGNTYYADSVKGRFTISRDNAKNTVYLQMNSLKPEDTAVYYCAAAPRKYVWMDYWGQGTQVTVSS	low polyreactivity
QVQLVESGGGLVQAGGSLRLSCAASGSILVDYAMGWYRQAPGKERELVASITRDGSTNYADSVKGRFTISRDNAKNTVYLQMNSLKPEDTAVYYCAAKYAWRLLEMYYWGQGTQVTVSS	low polyreactivity
QVQLVESGGGLVQAGGSLRLSCASSGSTFHVNAMGWYRQAPGKERELVARISSTGRTSYADSVKGRFTISRDNAKNTVYLQMNSLKPEDTAVYYCAARYYRVYVSSDYYYWGQGTQVTVSS	high polyreactivity
QVQLVESGGGLVQAGGSLRLTCAASGFTFARNTMGWYRQAPGKERELVAAISKNGGSTYYADSVKGRFTISRDNAKNTVYLQMNSLTPEDTAVYYCNTYPSKVGRYSVKDYEYGYWGQGTQVTVSS	high polyreactivity
QVQLVESGGGLVQAGGSLRLSCAASGLTFKYYAMGWYRQAPGKERELVAAITSTGGRTYYADSVKGRFTISRDNAKNTVYLQMNSLKPEDTAFYYCAAYYVGSSKYDSWGQGTQVTVSS	low polyreactivity
QVQLVESGGGLVQAGGSLRLSCAASGRTFRWNAMGWYRQAPGKERELVASITVNGGSTSYADSVKGRFTISRDNAKNTVYLQMNSLKPEDTAVYYCNAYYTYWYPRYDYWGQGTQVTVSS	low polyreactivity
QVHHVESGGGLVQAGGSLRLSCAASGFTLGWYAMGWYRQAPGKERELVAAISSSGGSTYYADSVKGRFTISRDNAKNTVYFQMNSLKPEDTAVYFCAASSAYYRYGYGQFDYWGQGTQVTVSS	high polyreactivity
QVQLVESGGGLVQAGGSLRLSCADSGSIFQPYAMGWYRQAPGKERELVAAINGRGGSTHYADSVKGRFTISRDNEKNSVYLQMNSLKPEDTAVYDCAARYYRDYRWYTYAYDYWGQGTQVTVSS	high polyreactivity
QVQVVESGGGLVHAGGSLRLSCAASGITCVWNDMGWYRQPPGKEREFVAGITYRSGRTYYADSVKGRFTISRDNAKNTVYLQMNSLKPEDTAGYYCATTPRYTTYNYWGQGTQVTVSS	high polyreactivity
QVQLVESGGGLVQAGGSLRLSCAASGFIFPYYAMGWYRQAPGKERELVAAISSGGSTYYADSVKGRFTISRDNAKNSVYLQMNSLKPEDTAVYYCAVRITYWTGEFDYWGQGTQVTVSS	high polyreactivity
QVQLVESGGGLVQAGGSLRLSCAASGSNFVVYAMGWYRQAPGKERELVAAITGSGGRTYYADSVKGRFTISRDNAKNTVYLQMNSLKPEDTAVYYCATDSRGGIFDYWGQGTQVTVSS	low polyreactivity
QVQLVESGGGLVQAGGSLRLSCAASGSTFYIYAMGWYRQAPGKERELVAAISSVGRTSYADSVKGRFTISRDNAKNTVYLQMNSLKPEDTAVYYCAADKVDDSSYVPRTVFRYESDYWGQGTQVTVSS	low polyreactivity
QVQLVESGGGLVQAGGSLRLSCAASGSTFWSNPMGWYRQAPGKERELVAAISISDGNTYYADSVKGRFTISRDNAKNTVYLQMNSLKPDDTAVYYCATVGSEDGDPGFDYWGQGTQVTVSS	low polyreactivity
QVQLVESGGGLVQAGGSLRLSCAASGFIFRWYAMGGYRPAPGKERELVASITRCGSTYYADSVKGRFTISRDNAKNTVYLQMNSLKPEDTAVYYCAVDYLSPKYDYWGHGTQVTVSS	high polyreactivity
QVQLVESGGGLVQAGASLRLSCAASGRTFWFYAMGWYRQAPGQERELVAAISSGGSTNYADSVKGLFTISRDNAKNTVYLQMNSLKPEDTAVYYCAKVGNIPYGTRYYYNRYDYWGQGTQVTVSS	low polyreactivity
QVQLVESGGGLVQAGGSLRLSCAASGRIFGTNAMGWYRQAPGKESELVATITRGGGNTYYADSVKGRFTISRDNAKNTVYLQMISLKPEDTAVYYCGAKFHRFAWYSHYDYWGQGTQVTVSS	low polyreactivity

Sequence	polyreactivity (PSR sort gate)
QVQLVESGGGLVKAGGSLRLSCAASGFNFGGNVMGWYRQAPGKERELVAAITYSGGSTYYADSVKGRFTISRDNAKNTVYLQMNSLKPEDTAVYYCAAVQRKYYIDPAYDYWGQGTQVTVSS	low polyreactivity
QVQHVESGGGLVQAGGSHRLSCAASGSIYWWNAMGWYRQAPGKERELVAAISFSGGSTYYADSVKGRFTISRDNAKNTVYLQMNSLKPEDTAVYYCAAEAYDDYDYWGQGTQVTVSS	low polyreactivity
QVQLVESGGGLVQAGGSLRLSCAASGLTFIPNAMGWYRQAPGKERELVAAISGTGGSTYYADSVKGRFTISRDNAKNTVYLQMNSLKPEDTAVYYCAARRRYKSGYWGQGTQVTVSS	high polyreactivity
QVQMQESGGGLEQAGGSLRLSCAASGNISGFGYMGWYRQAPGKEREFVAAISYGTSTYYADSVKGLFTISRDNAKNTVYLQINSLKPEDTAVFYCAALCLISKHHHYWGEGTQVTVSS	high polyreactivity
QVQLVESGGGLVQAGGSLRLSCAASGSIFTPYTMVWYRQAPGKERELVAAIRPNSGSTYYADSVKGRFTISRDNAKNTVYLQLNSLKPEDTAVYYCNAQCYGPGGGYFWSYDYWGQGTQVTVSS	low polyreactivity
QVQLVESGGGLVQAGGSLRLSCAASGSIFPTYVMGWYRQAPGKERELVAAISARGDSTYADSVKGRFTISRDNAKNTVYLQMNSLKPEDTAVYYCAKSAHSDYVYSRLEFGYWGQGTQVTVSS	low polyreactivity
QVQLVESGGGLVQAGGSLRLSCAASGSIFYWYAMGWYRQAPGKERELVAAIDISDDTYYADSVKGRFTISRDNAKNTVYLQMNSLKPEDTAVYYCAARTTRWFYEYDWGQGTQVTVSS	high polyreactivity
QVQLVESGGGLVQAGGSLRLSCAASGSTIPRNAMGWYRPAPGKERELVAAITSGGSTNYADSVKGRFTLSRDNAKNTVYLQINSLKPEDTAVYYCAADEQVNTQYVVWGDYWGQGTQVTVSS	low polyreactivity
QVHLVESGGGLVQAGGSLRLSCDASGLTFANNAMGWYRQAPGKEREFVAAIRGSGGSTYYADSVKGRFTISRDNAKNTVYLQMNSLKPEDTAVYYCNAGYLRKYHGWFQVKFDYWGQGTQVTVSS	low polyreactivity
QVQLVESGGGLVQAGGSLRLSCAASGSTSVQYAMGWYRQAPGKERELVAAIDRSGGSTSYADSVKGRFTISRDNAKHTVYLQMNSLKPEDTAVYYCNADVHNRGWPYDYWGQGTQVTVSS	low polyreactivity
QVQLVESGGGLVQAGCSLSISCAASGSTFFRYAMGLYRQAPGKERELVAAISKSGASTYYADSVKGSFTISRDNAKNTVYLQMNRLKPEDTAVYYCNADVKKSSAREWQYCYDYWGQGTQVTVSS	low polyreactivity
QVQLVESGGGLVQAGGSLRLSCAASGGTLRGYAMGGYRQAPGKEREFDATISRRGGSTYYADSVKGRFTNSRDNAKNTVYLQMNSLKPEDTAVYYCAKQGQSDYYSWGQGTQVTVSS	high polyreactivity
QVQLVESGGGLVQAGGSLRLSCAASGSIFVSYTMGWYRQAPGKERELVAAITRSGGSTYYADSVKGRFTISRDNAKNTVYLQMNSLKPEDTAVYYCARVSRRGPGYTTLYSRYDYWGQVTQVTVSS	low polyreactivity
QVHLVESGGGLVQAGGSLRLSCAASGFTFRDYAMGWYRQAPGKERELVAAIDIGTTTYYADSVKGRFTISRDNAKNTVYLQMNSLKPEDTAVYYCAAYSFASVYFGTGYDYWGQGTQVTVSS	low polyreactivity
QVQLVDSGGGLVQAGGSLRLSCAASGYTFPSKTMGWYRQAPGKERELVAAISGGGRTYYADSVKGRFTISRDNAKNTVYLQMNCLKPEDSAVYYCAKDSWYTQNRYNYWGQGTQVNVSS	low polyreactivity
